According to FireProtDB (doi:10.1021/bi000849s):

Settings: Homo sapiens, Thermal, DSC, reversible: yes, whole UniProt chain shown

B1: Lysozyme C wild type, P61626 (protein)
chain: MKALIVLGLVLLSVTVQGKVFERCELARTLKRLGMDGYRGISLANWMCLAKWESGYNTRATNYNAGDRSTDYGIFQINSRYWCNDGKTPGAVNACHLSCSALLQDNIADAVACAKRVVRDPQGIRAWVAWRNRCQNRDVRQYVQGCGV
Q: With B1 as the protein, how does the Tm (pH 2.2, glycine hydrochloride 0.05 M) read?
A: 57.5 °C

Q: What about the Tm (pH 2.3, glycine hydrochloride 0.05 M, KCl 0.2 M) of the same protein?
A: 56.2 °C

Q: And the Tm (pH 4, sodium acetate 0.02 M)?
A: 80.1 °C

Q: And the Tm (pH 4.5, sodium acetate 0.02 M, KCl 0.2 M)?
A: 77.7 °C
